Patent US20210238276A1 (INTEGRAL MOLECULAR, published 2021)
Like-named read-outs stand apart in the source and are kept apart here.

Experiments:
hsGLUT4 Y309I = target: T1, hsGLUT4 Y309I (human, UniProt P14672 1-509); assay: flow cytometry, mutant in HEK-293T
T1 construct: The running text prints 'Y3091'; also called Y3091 (as printed in the running text); outward-open lock mutant
T1 sequence: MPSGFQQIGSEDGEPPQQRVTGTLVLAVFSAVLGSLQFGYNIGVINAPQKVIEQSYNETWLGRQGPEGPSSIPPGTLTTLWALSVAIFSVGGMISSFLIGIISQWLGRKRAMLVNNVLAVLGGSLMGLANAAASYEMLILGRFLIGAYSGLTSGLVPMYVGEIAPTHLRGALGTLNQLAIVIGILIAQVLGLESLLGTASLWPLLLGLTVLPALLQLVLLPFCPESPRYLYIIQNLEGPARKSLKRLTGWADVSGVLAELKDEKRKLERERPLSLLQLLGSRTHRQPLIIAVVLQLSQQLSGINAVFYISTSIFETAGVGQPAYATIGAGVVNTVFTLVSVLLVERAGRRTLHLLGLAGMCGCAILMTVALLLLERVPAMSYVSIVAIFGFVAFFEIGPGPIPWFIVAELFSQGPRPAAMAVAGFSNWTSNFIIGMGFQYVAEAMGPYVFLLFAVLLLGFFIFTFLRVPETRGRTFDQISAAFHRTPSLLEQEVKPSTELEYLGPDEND

hsGLUT4 E345Q = target: T2, hsGLUT4 E345Q (human, UniProt P14672 1-509); assay: flow cytometry, mutant in HEK-293T
T2 construct: also called inward-open lock mutant
T2 sequence: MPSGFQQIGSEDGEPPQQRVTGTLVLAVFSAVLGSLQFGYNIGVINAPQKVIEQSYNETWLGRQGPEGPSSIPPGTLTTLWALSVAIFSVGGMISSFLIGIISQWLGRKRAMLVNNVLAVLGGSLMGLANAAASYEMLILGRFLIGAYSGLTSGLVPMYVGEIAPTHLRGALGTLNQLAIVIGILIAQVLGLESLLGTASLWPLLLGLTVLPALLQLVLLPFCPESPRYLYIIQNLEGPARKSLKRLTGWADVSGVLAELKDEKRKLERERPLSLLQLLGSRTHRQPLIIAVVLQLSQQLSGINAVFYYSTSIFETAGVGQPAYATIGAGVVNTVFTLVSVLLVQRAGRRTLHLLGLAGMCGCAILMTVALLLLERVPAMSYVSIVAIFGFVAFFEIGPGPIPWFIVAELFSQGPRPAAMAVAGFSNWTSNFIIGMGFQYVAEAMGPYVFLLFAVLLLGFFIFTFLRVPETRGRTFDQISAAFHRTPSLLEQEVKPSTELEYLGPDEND

human GLUT3 (hsGLUT3) = target: T3, human GLUT3 (hsGLUT3) (human, UniProt P11169 1-496); assay: flow cytometry, transfected HEK-293T
T3 construct: whole, on cells
T3 sequence (looked up): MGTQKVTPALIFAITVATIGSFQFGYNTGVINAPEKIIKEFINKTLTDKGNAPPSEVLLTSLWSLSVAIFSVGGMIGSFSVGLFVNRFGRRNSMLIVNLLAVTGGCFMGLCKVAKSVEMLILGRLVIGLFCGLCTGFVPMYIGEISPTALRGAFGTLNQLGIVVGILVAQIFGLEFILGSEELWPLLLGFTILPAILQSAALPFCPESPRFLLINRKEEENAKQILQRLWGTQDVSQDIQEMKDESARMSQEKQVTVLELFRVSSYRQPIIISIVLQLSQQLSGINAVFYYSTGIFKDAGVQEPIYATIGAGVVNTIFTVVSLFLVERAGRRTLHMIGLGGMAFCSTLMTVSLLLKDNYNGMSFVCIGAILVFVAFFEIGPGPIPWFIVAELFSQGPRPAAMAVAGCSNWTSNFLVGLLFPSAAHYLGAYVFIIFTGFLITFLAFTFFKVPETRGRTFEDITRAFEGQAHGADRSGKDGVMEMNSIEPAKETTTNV
Protocol: HEK-293T cells were transfected by CaPO₄ with plasmids in 6-well culture plates (Falcon) at 750,000 cells/well. At 48 hours post transfection, cells were stained with anti-V5 and anti-GLUT4 MAbs (purified scFv, 2 μg/ml) followed by biotinylated goat anti-mouse or human antibody (1:500) and streptavidin-PerCP (1:500). Fluorescence was detected using an Intellicyt high-throughput flow cytometer (HTFC; Intellicyt, Albuquerque, N. Mex.). For cell permeabilization, cells were treated with saponin at 0.1% in PBS for 20 minutes. To discriminate intact (live) and permeabilized (dead) cells without the use of detergent, propidium iodide (PI) was added to HEK-293T cells at 1 ug/ml just prior to flow cytometry. Where indicated, cytochalasin B (Sigma) was used at a final concentration of 10 uM and phloretin (Sigma) was used at a final concentration of 100 uM, each added in 10% NGS for 30 minutes prior to antibody staining as well as included with the primary antibody.

[1] = target: T4, human GLUT4 (hsGLUT4), wild type (UniProt P14672 1-509); assay: BLI; avid
T4 chain: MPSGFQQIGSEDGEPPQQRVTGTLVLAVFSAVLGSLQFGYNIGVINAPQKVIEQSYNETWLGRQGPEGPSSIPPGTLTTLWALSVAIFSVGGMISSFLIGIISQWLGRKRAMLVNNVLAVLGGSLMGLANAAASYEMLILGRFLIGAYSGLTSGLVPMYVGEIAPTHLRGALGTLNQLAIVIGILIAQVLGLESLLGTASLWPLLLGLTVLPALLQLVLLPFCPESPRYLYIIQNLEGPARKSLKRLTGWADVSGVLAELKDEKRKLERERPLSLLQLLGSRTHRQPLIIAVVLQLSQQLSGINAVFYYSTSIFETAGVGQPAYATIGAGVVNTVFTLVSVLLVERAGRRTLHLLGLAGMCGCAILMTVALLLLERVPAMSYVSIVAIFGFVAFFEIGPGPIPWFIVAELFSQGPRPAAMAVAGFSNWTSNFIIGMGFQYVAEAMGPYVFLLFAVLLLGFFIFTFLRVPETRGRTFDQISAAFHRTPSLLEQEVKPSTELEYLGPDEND

[2] = target: T4, human GLUT4 (hsGLUT4), wild type; assay: BLI; avid

| Molecule | % of binding to wild type GLUT4 (hsGLUT4 Y309I) | % of binding to wild type GLUT4 (hsGLUT4 E345Q) | binding result (human GLUT3 (hsGLUT3)) | Kd [1] | Kd [2] |
| --- | --- | --- | --- | --- | --- |
| 1F8 (antibody) | 101% | 91% |  |  |  |
| AB105 (Fc fusion, Bivalent scFv-Fc; also called MAb AB105; not shown: Fc fragment of human IgG1, cloned in frame with the scFv) scFv: ALTQPSSVSANPGETVEITCSGDSSYYGWYQQKSPGSAPVTVIYANTNRPSDIPSRFSGSASGSTATLTITGVQAEDEAVYYCGSADSTYAGIFGAGTTLTVLGQSSRSSGGGGSSGGGGSAVTLDESGGGLQTPGGALSLICKASGFTFSSYTMNWVRQAPGKGLEWVGVISNSGRTTNYGAAVQGRATISRDNGQSTVRLQLNNLRAEDTGTYYCAKSSASASCAWWAGRSYPCSANRIDAWGHGTEVIVSS |  | 16% | no binding (tested: 2 µg/ml) |  |  |
| AB111 (Fc fusion, Bivalent scFv-Fc; also called MAb AB111; not shown: Fc fragment of human IgG1, cloned in frame with the scFv) scFv: ALTQPSSVSANPGETVKITCSGSGSWYGWFQQKSPGSAPVTVIYSNDKRPSDIPSRFSGSKSGSTSTLTITGVQVEDEAVYYCGNWDIFGAGTTLTVLGQSSRSSGGGGSSGGGGSAVTLDESGGGLQTPGGALSLVCKASGFTFSSHGMGWVRQAPGKGLEWVASISTGRYTFYAPAVKGRATISRDNGQSTVRLQLNNLRAEDTATYYCTKCAGLNGCGGGEIDAWGHGTEVIVSS | 154% | 125% | no binding (tested: 2 µg/ml) | 0.56 nM | 0.56 nM |
| AB108 (Fc fusion, Bivalent scFv-Fc; also called MAb AB108; not shown: Fc fragment of human IgG1, cloned in frame with the scFv) scFv: ALTQPSSVSANLGGTVKITCSGSSGSYGWYQQKAPGSAPVTLIYRNDKRPSDIPSRFSGSESGSTGTLTITGVQAEDEAVYFCGGYDSSAGYAAFGAGTTLTVLGQSSRSSGGGGSSGGGGSAVTLDESGGGLQTPGGALSLVCKASGFTFSSHGMGWVRQAPGKGLEWVGSISTGRYTFYAPAVKGRATISRDNGQSTLRLQLNNLRAEDTGTYYCTKCAGLNGCGGGEIDAWGHGTEVIVSS | 67% | 78% | no binding (tested: 2 µg/ml) | 1.8 nM | 1.8 nM |
| AB101 (scFv, Chicken-derived clone used as a control; the four lead clones were tested as scFv-human IgG1 Fc; also called MAb AB101) scFv: ALTQPSSVSANPGETVKITCSGSSNSYGWYQQKSPGSAPVTVIYYNDKRPSDIPSRFSGSKSDSTHTLTITGVRAEDEAVYFCGSYDSTYVGIFGAGTTLTVLGQSSRSSGGGGSSGGGGSAVTLDESGGGLQTPGGTLSLVCKASGFTFSSNAMGWVRQAPGKGLEWVAGISSDGRYTKYGSAVKGRATISRDNGQSTVRLQLNNLRAEDTGTYFCAKAFGNNYRRIYAGQIDAWGHGTEVIVSS | 110% | 96% |  |  |  |
